From patent publication US20260306676A1, “FLUORESCEIN-LABELED NERVE TARGETING PEPTIDE FORMULATIONS AND RELATED METHODS” (ALUME BIOSCIENCES, INC., priority 2023, published 2026)
In brackets after ≈: the same amount, converted by molar mass. Counter-ions that a name gives are not always drawn.

How the values were obtained:
[1] = pH-moderated solubility (NaOH titration) of ALM-488 salts; type: physicochemical; details: for initial pH of mixture: before NaOH, acetate mixture ~50 mg/mL
Description: A titration experiment was carried out using the ALM-488, HCl salt to determine if a nominal 40-50 mg/mL or higher solubility could be retained as pH is increased by gradual addition of NaOH. […] At solution pH values <4 the peptide remained in solution at concentrations >50 mg/mL. Above pH 4, the peptide precipitated. […] Dilution of the mixture due to base addition decreased the peptide concentration to ~47 mg/mL at pH values >7.
FIG. 8 is an overlay of the titration curves for ALM-488 hydrochloride and the ALM-488 acetate.

[2] = Drug product assay of lyophiles by HPLC; type: physicochemical; details: Pre-Lyo., starting peptide
Description: The content and purity of the ALM-488 peptide in the lyophilized product vials for Samples 10-1, 10-2 and 10-3 were evaluated using the HPLC method conditions of Table 3. […] The resulting solution was then transferred to a 200 mL volumetric flask. Each vial was rinsed well with water, and the rinses were transferred to the flask prior to volume make-up to 200 mL with water. The resulting solutions (~0.25 mg/mL of ALM488) were individually injected into the HPLC system and were analyzed as described above. The lyophilization process appeared to cause a small increase in the levels of some impurities.

[3] = Effect of organic amine compounds on solubility of ALM-488 (pH titration)
Description: To assess formulations that could be used to prepare ~50 mg/vial samples of ALM-488, and samples having an ALM-488 concentration of ~50 mg/mL, formulations having different organic amine compounds were studied. Each of these samples included (i) ALM-488 hydrochloride, (ii) a suitable base appropriate for a freeze-dried formulation (to adjust solution pH to optimal 7-8, as described in Examples 4 and 5), and (iii) at least one organic amine compound functioning as a pH-adjusting agent, bulking agent and/or a tonicity-adjusting agent. […] 55-60 mg/mL solutions of ALM-488 (pH 1.8-1.9) were titrated by gradual addition of 750 mM arginine, 1 M Tris, or 1 M meglumine.

[4] = Influence of storage temperature on stability of ALM-488 solution (HPLC); type: physicochemical
Description: To evaluate whether the ALM-488, HCl salt can be supplied in the form of a concentrated frozen solution, 50 mg/mL solutions of the HCl salt were prepared in water and evaluated for storage stability at different temperatures. The solutions having pH of 1.87 were prepared in sterile water for injection, and these solutions were stored at different storage temperatures (−20° C., 5° C. and 40° C.) and were analyzed using the HPLC method of Table 3 at different time periods.

[5] = Influence of pH on solubility and stability of ALM-488; type: physicochemical
Description: To understand pH-stability relationships, solutions of the ALM-488, HCl salt were prepared at ~1 mg/mL in 50 mM sodium citrate (pH 4-6) or sodium phosphate buffer (pH 7-8) solutions. […] All mixtures were filtered through a 0.45 μm PVDF syringe filter to remove undissolved solid, prior to storage. The filtered solution pH values were measured, and the samples were analyzed by HPLC using the HPLC method conditions of Table 3. Table lists the measured concentrations of ALM-488 (after filtration) as well as the measured solution pH values.
The solutions were then transferred into HPLC sample vials and were stored at 5° C., room temperature (22-23° C.) and 40° C.
Table 5 below summarizes the measured concentrations of intact ALM-488 peptide quantified relative to a standard solution, as well as the area % of the main peptide peaks as measured using the HPLC analysis method of Table 3. FIG. 9 is an overlay of representative chromatograms of the ALM-488 solutions at different solution pH values stored at 40° C. for 24 h. […] At higher pH values, the impurity at RRT ~0.96 appeared to grow during storage.

[6] = Thermogravimetric analysis of purified ALM-488 chloride salt; type: physicochemical
[7] = Karl Fisher water content of purified ALM-488 chloride salt; type: physicochemical; details: oven 100° C.
Description: Karl Fisher titration was carried out on the chloride salt of ALM-488 using a Mettler Toledo Stromboli automatic oven sample changer. The instrument was standardized with a Hydranal® Water standard (Fluka). The solid ALM-488 sample was weighed into a sample vial and was heated to 100° C. in the oven, and the water vaporized from the sample was transferred to the titrator cell by purge gas.

[8] = 50 mg/mL in sterile water, 7 Days (5° C.)
[9] = 50 mg/mL in sterile water, 7 Days (40° C.)
[10] = 50 mg/mL in sterile water, 7 Days (−20° C.)
[11] = 50 mg/mL in sterile water, Initial (RT)
[12] = After 24 hours at 40° C., Citrate buffer 50 mM, pH 3.95
[13] = After 24 hours at 40° C., Citrate buffer 50 mM, pH 4.97
[14] = After 24 hours at 40° C., Citrate buffer 50 mM, pH 6.01
[15] = After 24 hours at 40° C., Phos. buffer 50 mM, pH 7.04
[16] = After 24 hours at 40° C., Phos. buffer 50 mM, pH 8.18
[17] = After 24 hours at 40° C., Water
[18] = Initial, Citrate buffer 50 mM, pH 3.95
[19] = Initial, Citrate buffer 50 mM, pH 4.97
[20] = Initial, Phos. buffer 50 mM, pH 7.04
[21] = Initial, Phos. buffer 50 mM, pH 8.18

## CC(C)[C@H](NC(=O)[C@H](Cc1ccc(O)cc1)NCCCCC(=O)[C@H](Cc1ccc(O)cc1)NC(=O)[C@@H]1CCCN1C(=O)[C@H](CCC(=O)O)NC(=O)[C@H](CCC(=O)O)NC(=O)[C@H](Cc1c[nH]c2ccccc12)NC(=O)[C@@H]1CCCN1C(=O)[C@@H](NC(=O)[C@H](CCC(N)=O)NC(=O)c1ccc2c(c1)C(=O)OC21c2ccc(O)cc2Oc2cc(O)ccc21)C(C)C)C(=O)N[C@H](C(=O)N[C@@H](CCCCN)C(=O)N[C@@H](CCCCN)C(=O)N[C@@H](CO)C(=O)N[C@@H](CO)C(=O)NCC(=O)NCC(N)=O)C(C)C [ALM-488 acetate]
[1]
  initial pH of mixture: ~ 4
[1]; compared with hydrochloride salt
  amount of NaOH required to adjust pH to ~7: lower than that for the hydrochloride salt
[1]; initial pH ~4, ~50 mg/mL
  dissolution / appearance: did not completely dissolve and formed an opaque orange dispersion
[1]; pH >7, NaOH added
  appearance: clear solution

## CC(C)[C@H](NC(=O)[C@H](Cc1ccc(O)cc1)NCCCCC(=O)[C@H](Cc1ccc(O)cc1)NC(=O)[C@@H]1CCCN1C(=O)[C@H](CCC(=O)O)NC(=O)[C@H](CCC(=O)O)NC(=O)[C@H](Cc1c[nH]c2ccccc12)NC(=O)[C@@H]1CCCN1C(=O)[C@@H](NC(=O)[C@H](CCC(N)=O)NC(=O)c1ccc2c(c1)C(=O)OC21c2ccc(O)cc2Oc2cc(O)ccc21)C(C)C)C(=O)N[C@H](C(=O)N[C@@H](CCCCN)C(=O)N[C@@H](CCCCN)C(=O)N[C@@H](CO)C(=O)N[C@@H](CO)C(=O)NCC(=O)NCC(N)=O)C(C)C [ALM-488, Bevonescein]
[2]
  ALM-488 main peak: 99.69 Area %
  impurity RRT~0.97: 0.14 Area %
  impurity RRT~1.06: 0.11 Area %
  impurity RRT~1.38: 0.02 Area %
[3]
  solubility: > 50000 µg/mL
[4]; [8]
  ALM-488 main peak: 99.61 AREA %
  impurity RRT~0.73: 0.07 AREA %
  impurity RRT~0.97: 0.15 AREA %
  impurity RRT~1.06: 0.14 AREA %
  impurity RRT~1.38: 0.05 AREA %
[4]; [9]
  ALM-488 main peak: 97.96 AREA %
  impurity RRT~0.73: 0.05 AREA %
  impurity RRT~0.93: 0.09 AREA %
  impurity RRT~0.97: 0.07 AREA %
  impurity RRT~1.06: 1.43 AREA %
  impurity RRT~1.18: 0.07 AREA %
  impurity RRT~1.38: 0.27 AREA %
[4]; [10]
  ALM-488 main peak: 99.56 AREA %
  impurity RRT~0.73: 0.07 AREA %
  impurity RRT~0.94: 0.03 AREA %
  impurity RRT~0.97: 0.16 AREA %
  impurity RRT~1.06: 0.15 AREA %
  impurity RRT~1.38: 0.04 AREA %
[4]; [11]
  ALM-488 main peak: 99.64 AREA %
  impurity RRT~0.94: 0.09 AREA %
  impurity RRT~0.97: 0.23 AREA %
  impurity RRT~1.06: 0.09 AREA %
[5]; 50 mm citrate buffer, aqueous buffer, citrate buffers (pH 4-6), read-out: solubility
  solubility: < 1000 µg/mL
[5]; [12]
  ALM488 concentration: 0.87 mg/mL
  HPLC purity, area %: 99.5%
[5]; [13]
  ALM488 concentration: 0.18 mg/mL
  HPLC purity, area %: 99.8%
[5]; [14]
  ALM488 concentration: 0.60 mg/mL
  HPLC purity, area %: 99.8%
[5]; [15]
  ALM488 concentration: 0.95 mg/mL
  HPLC purity, area %: 99.8%
[5]; [16]
  ALM488 concentration: 0.96 mg/mL
  HPLC purity, area %: 99.5%
[5]; [17]
  ALM488 concentration: 0.86 mg/mL
  HPLC purity, area %: 99.3%
[5]; Citrate buffer 50 mM (pH 3.95)
  Measured solution pH: 3.85
[5]; Citrate buffer 50 mM (pH 3.95), read-out: Measured concentration in filtered solution
  solubility: 830 µg/mL (≈ 351 µM)
[5]; Citrate buffer 50 mM (pH 4.97)
  Measured solution pH: 4.89
[5]; Citrate buffer 50 mM (pH 4.97), read-out: Measured concentration in filtered solution
  solubility: 180 µg/mL (≈ 76.1 µM)
[5]; Citrate buffer 50 mM (pH 6.01)
  Measured solution pH: 5.91
[5]; Citrate buffer 50 mM (pH 6.01), read-out: Measured concentration in filtered solution
  solubility: 610 µg/mL (≈ 258 µM)
[5]; [18]
  ALM488 concentration: 0.83 mg/mL
  HPLC purity, area %: 99.3%
[5]; [19]
  ALM488 concentration: 0.18 mg/mL
  HPLC purity, area %: 99.8%
[5]; Initial, Citrate buffer 50 mM, pH 6.01
  ALM488 concentration: 0.61 mg/mL
[5]; [20]
  ALM488 concentration: 0.94 mg/mL
  HPLC purity, area %: 99.7%
[5]; [21]
  ALM488 concentration: 0.95 mg/mL
  HPLC purity, area %: 99.7%
[5]; Initial, Water
  ALM488 concentration: 0.86 mg/mL
  HPLC purity, area %: 99.8%
[5]; Phos. buffer 50 mM (pH 7.04)
  Measured solution pH: 6.94
[5]; Phos. buffer 50 mM (pH 8.18)
  Measured solution pH: 7.90
[5]; Water
  Measured solution pH: 3.46
[5]; aqueous buffer, pH 5, citrate buffer, read-out: solubility near isoelectric pH
  solubility: ~200 µg/mL (≈ 84.5 µM)
[5]; neutral pH values
  solution stability: adequate solution stability
[5]; phosphate buffer 50 mm, Phos. buffer 50 mM (pH 7.04), read-out: Measured concentration in filtered solution
  solubility: 940 µg/mL (≈ 397 µM)
[5]; phosphate buffer 50 mm, Phos. buffer 50 mM (pH 8.18), read-out: Measured concentration in filtered solution
  solubility: 950 µg/mL (≈ 401 µM)
[5]; water (pH 3.46), 40° C. for 24 h
  impurity at RRT ~1.4: ~ 0.5 area %
[5]; water (pH 3.5) and phosphate buffer (pH 7-8), ~1 mg/mL
  dissolution: rapid and complete
[5]; water, read-out: Measured concentration in filtered solution
  solubility: 860 µg/mL (≈ 363 µM)

## CC(C)[C@H](NC(=O)[C@H](Cc1ccc(O)cc1)NCCCCC(=O)[C@H](Cc1ccc(O)cc1)NC(=O)[C@@H]1CCCN1C(=O)[C@H](CCC(=O)O)NC(=O)[C@H](CCC(=O)O)NC(=O)[C@H](Cc1c[nH]c2ccccc12)NC(=O)[C@@H]1CCCN1C(=O)[C@@H](NC(=O)[C@H](CCC(N)=O)NC(=O)c1ccc2c(c1)C(=O)OC21c2ccc(O)cc2Oc2cc(O)ccc21)C(C)C)C(=O)N[C@H](C(=O)N[C@@H](CCCCN)C(=O)N[C@@H](CCCCN)C(=O)N[C@@H](CO)C(=O)N[C@@H](CO)C(=O)NCC(=O)NCC(N)=O)C(C)C [ALM-488, HCl salt]
[6]; TGA
  onset of steep decrease in weight, presumably degradation: 200-250 °C
[6]; heated to 100° C.
  weight loss by TGA: 3.96%
[3]; 107 mM tris (pH 7.3)
  Calculated total ALM-488 peptide concentration: 49.2 mg/mL
[3]; 116 mM arginine (pH 7.61)
  Calculated total ALM-488 peptide concentration: 51.7 mg/mL
[3]; l-arginine titration
  solubility: < 50000 µg/mL
[3]; meglumine titration
  solubility: < 50000 µg/mL
[3]; meglumine titration end (printed 107 mm tris)
  solution pH: 7.88
[3]; meglumine titration, pH 7.88
  Calculated total ALM-488 peptide concentration: 49.2 mg/mL
[3]; no L-arginine added
  solution pH: 1.86
[3]; no L-arginine added (pH 1.86)
  Calculated total ALM-488 peptide concentration: 55 mg/mL
[3]; no Tris added
  solution pH: 1.89
[3]; no Tris added (pH 1.89)
  Calculated total ALM-488 peptide concentration: 55 mg/mL
[3]; no meglumine added
  solution pH: 1.86
[3]; no meglumine added (pH 1.86)
  Calculated total ALM-488 peptide concentration: 55 mg/mL
[3]; tromethamine (tris) titration
  solubility: < 50000 µg/mL
[3]; with 107 mM tris
  solution pH: 7.3
[3]; with 116 mM arginine
  solution pH: 7.61
[4]; 50 mg/mL in sterile water for injection
  solution pH: 1.87
[1]; NaOH titration
  pH of resistance to pH change upon base addition (may coincide with pKa of glutamic acid and 5-FAM), first: ~ 4.5
  pH of resistance to pH change upon base addition (may coincide with pKa of glutamic acid and 5-FAM), second: ~ 6.5
[1]; above pH 4, NaOH titration
  precipitation: precipitated
[1]; listed as ALM-488 hydrochloride
  initial pH of mixture: ~ 1.8
[1]; pH >7, NaOH titration
  dissolution: complete dissolution
[1]; pH >7, after dilution by base addition
  peptide concentration in solution: ~ 47 mg/mL
[1]; pH ~4.5 to 5.5, NaOH titration
  appearance: opaque dispersion
[1]; pH ~6.5, NaOH titration
  appearance: clarification of the mixture
[1]; water with naoh, pH <4, NaOH titration, read-out: concentration remaining in solution
  solubility: > 50000 µg/mL
[1]; water, visual assessment, solution pH <2, read-out: solubility
  solubility: > 180000 µg/mL
[1]; ~55 mg/mL in water, start of titration
  solution pH: 1.7
[7]
  water content: 4.08%
